Measured values: paper PMC4381056

Target: T1, MBD3-GFP (methyl-CpG-binding domain protein 3 fused to GFP), O95983
T1 chain: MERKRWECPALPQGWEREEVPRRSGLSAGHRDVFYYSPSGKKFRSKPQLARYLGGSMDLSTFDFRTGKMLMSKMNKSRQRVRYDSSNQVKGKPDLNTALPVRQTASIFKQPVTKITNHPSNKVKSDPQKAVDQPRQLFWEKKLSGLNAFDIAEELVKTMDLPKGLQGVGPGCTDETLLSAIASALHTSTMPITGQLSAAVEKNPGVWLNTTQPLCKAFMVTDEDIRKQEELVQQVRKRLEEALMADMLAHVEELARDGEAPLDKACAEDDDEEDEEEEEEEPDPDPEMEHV
Assay: photon counting histogram
Details: remark: other sources report otherwise

B1: MBD3-GFP (methyl-CpG-binding domain protein 3 fused to GFP), O95983 1-291 (natural protein)
chain: T1 chain
dimer percentage (G1-phase): 84% | dimer percentage (G2-phase): 16% | dimer percentage (S-phase): 48%
